Positions count from the first letter of the chain named.
Key:
[1] = target: T1, human MUC1 expressing DA3-TM cell line (Homo sapiens, UniProt P15941); test: Dose dependent binding by flow cytometry on DA3-TM cell line; settings: MUC1 positive DA3-TM cell line
T1 construct: expressed in transfected cells; host or cells: DA3-TM (mouse cancer cell line)
Text: Dose dependent binding of surface MUC1 expression on human cancer cells using flow cytometer: Human cancer cell lines (COLO357, HT29 and SKOV3) or mouse cancer cell line expressing human MUC1 (DA3-TM) were harvested enzymatically using 0.25% Trypsin and 0.2% EDTA in Dulbecco's Phosphate Buffered Saline (D-PBS), washed with excess cell culture media and re-suspended at a cell density of 1-2×10^6/mL in the cell-line specific cell culture media. The anti-MUC1-SEA mAb (chimeric or humanized IgG)/ADC or the reference IgG antibody/ADC were added to cells at a concentration range of 0-50 nM. The cells were maintained at 4° C. for 1 hour and washed with the excess cell culture media. These cells were further stained with goat anti-human IgG, Fcγ, conjugated with Alexa Fluor 647 (Jackson Immuno Research, West Grove, PA, USA) for 1 hour at 4° C. The concentration for goat anti-human IgG, Fcγ was as per the manufacturer's instructions. Cells were further washed with the excess cell culture media and re-suspended in 100 μl of cell culture media. Cell-associated fluorescence was detected and recorded using flow cytometry (Beckman Coulter, Cytoflex). The mean intensity of fluorescence was obtained from FlowJo software and graph was plotted in Graphpad prism of concentration versus mean intensity of fluorescence.

[2] = target: T2, recombinant human MUC1-SEA (Homo sapiens, UniProt P15941); test: Binding strength by Surface Plasmon Resonance (SPR); settings: Table 2
T2 construct: on recombinant human MUC1-SEA on SPR; purchased Acrobiosystems MU1-H52H9
T2 sequence (P15941 1039-1148 limits assumed): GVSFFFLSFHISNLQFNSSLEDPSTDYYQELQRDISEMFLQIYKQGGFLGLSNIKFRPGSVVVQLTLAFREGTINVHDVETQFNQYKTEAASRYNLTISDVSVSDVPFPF
Protocol: Binding strength assessment using Surface Plasmon Resonance (SPR): MUC1 antigen (Acrobiosystems, Cat: MU1-H52H9) was captured on the anti-His immobilized on CM5 chip at 5 μl/min flow rate for 60 s. Post this concentration range of 0-50 nM of antibody or ADC is passed over MUC1 antigen at a flow rate of 30 μl/min flow rate for 120 s, keeping dissociation time of 1800 s at 25°. The dose response generated is evaluated on BIAevaluation software for the calculation of affinity of antibody to antigen as measured by dissociation constant (KD).

SKOV-3 cells = test: Growth inhibition of human cancer cell lines, SKOV-3; format: cell-based; settings: SKOV-3, moderate MUC1 expressing
Protocol: (§1) Human cancer cell lines (such as Colo357, HT29, SKOV3, BxPC3 and T47D) were seeded at 5000 cells/well in a 96-well plate flat bottom clear plate and allowed to adhere overnight. Next day, antibody/ADCs were added to these cells at the mentioned concentration or at a mentioned concentration range. Post 5-7 days of treatment, 20 μl of presto blue dye was added to wells and absorbance was recorded at 570 nm (600 nm reference wavelength). Percent survival was calculated against wells containing untreated cells in complete media and IC50 was calculated in Graphpad Prism.

[3] = target: T3, human MUC1-expressing SKOV3 cell line (Homo sapiens, UniProt P15941); test: Binding by flow cytometry on SKOV3 cell line
T3 construct: endogenous in cells; host or cells: SKOV3, COLO357, HT29 (human cancer cell lines)
T3 sequence (P15941 24-1255): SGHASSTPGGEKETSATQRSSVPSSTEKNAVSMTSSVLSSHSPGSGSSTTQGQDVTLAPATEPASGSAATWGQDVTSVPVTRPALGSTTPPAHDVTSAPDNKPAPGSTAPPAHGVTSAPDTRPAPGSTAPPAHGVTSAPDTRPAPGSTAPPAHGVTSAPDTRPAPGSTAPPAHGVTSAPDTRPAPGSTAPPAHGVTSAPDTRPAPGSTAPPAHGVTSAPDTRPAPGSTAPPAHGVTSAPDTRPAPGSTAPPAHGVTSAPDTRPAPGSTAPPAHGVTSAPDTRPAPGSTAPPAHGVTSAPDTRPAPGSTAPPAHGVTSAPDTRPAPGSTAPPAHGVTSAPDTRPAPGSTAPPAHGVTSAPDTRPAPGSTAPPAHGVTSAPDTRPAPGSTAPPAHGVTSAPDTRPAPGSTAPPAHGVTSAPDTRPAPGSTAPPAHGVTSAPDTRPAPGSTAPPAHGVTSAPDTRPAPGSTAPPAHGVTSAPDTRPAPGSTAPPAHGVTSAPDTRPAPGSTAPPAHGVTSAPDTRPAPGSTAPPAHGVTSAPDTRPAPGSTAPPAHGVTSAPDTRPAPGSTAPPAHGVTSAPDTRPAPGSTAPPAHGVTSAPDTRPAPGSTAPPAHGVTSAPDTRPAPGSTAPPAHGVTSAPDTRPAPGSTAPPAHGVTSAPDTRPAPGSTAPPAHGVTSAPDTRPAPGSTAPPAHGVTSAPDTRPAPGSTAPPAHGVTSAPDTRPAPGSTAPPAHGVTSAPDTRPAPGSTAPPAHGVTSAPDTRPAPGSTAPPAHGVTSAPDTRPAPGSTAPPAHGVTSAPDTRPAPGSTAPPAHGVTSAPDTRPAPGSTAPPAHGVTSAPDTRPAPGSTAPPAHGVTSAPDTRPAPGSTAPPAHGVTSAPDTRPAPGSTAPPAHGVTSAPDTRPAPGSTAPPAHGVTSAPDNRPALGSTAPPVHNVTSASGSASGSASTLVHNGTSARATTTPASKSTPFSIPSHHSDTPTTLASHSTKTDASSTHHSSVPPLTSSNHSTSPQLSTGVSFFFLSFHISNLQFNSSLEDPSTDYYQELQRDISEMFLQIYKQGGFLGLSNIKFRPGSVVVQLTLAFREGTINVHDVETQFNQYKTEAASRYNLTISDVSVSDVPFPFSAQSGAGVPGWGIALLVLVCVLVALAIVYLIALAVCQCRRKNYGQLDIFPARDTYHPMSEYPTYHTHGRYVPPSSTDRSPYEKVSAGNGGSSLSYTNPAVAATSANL
Text: The CDR residues from mouse anti-MUC1 antibody (m5F3) VH- (SEQ ID NO: 1) and VL- (SEQ ID NO: 2) domains were identified according to the three antibody numbering systems and grafted onto the human framework region sequences VH- (SEQ ID NO: 3) and VL- (SEQ ID NO: 4) domains respectively. CDRs from 5F3 were chemically synthesized and subsequently cloned into mammalian expression vectors. The expression vectors with humanized 5F3 heavy chain and light chain were named as SP66-HC and SP66-LC respectively. The VH domain of SP66 is SEQ ID NO: 5, and the VL domain of SP66 is SEQ ID NO: 6. The antibody expressed with SP66-HC and SP66-LC was named as SP66. SP66 was transiently expressed in CHO cells and purified by Protein-A affinity chromatography and evaluated for its binding to the human MUC1 SEA domain using flow cytometry on the human MUC1-expressing SKOV3 cell line (FIG. 1).
Dose dependent binding of surface MUC1 expression on human cancer cells using flow cytometer: Human cancer cell lines (COLO357, HT29 and SKOV3) or mouse cancer cell line expressing human MUC1 (DA3-TM) were harvested enzymatically using 0.25% Trypsin and 0.2% EDTA in Dulbecco's Phosphate Buffered Saline (D-PBS), washed with excess cell culture media and re-suspended at a cell density of 1-2×10^6/mL in the cell-line specific cell culture media. […]

[4] = system: COLO-357 pancreatic carcinoma cells; test: Growth inhibition of human cancer cell lines, COLO-357; settings: COLO-357, high MUC1-SEA expressing
HT-29 cells = test: Growth inhibition of human cancer cell lines, HT-29; format: cell-based; settings: HT-29, no MUC1 expressing
Protocol: as §1

T1 sequence (P15941 24-1255): as above

B1: chi 5F3: chimeric anti-MUC1 SEA antibody of WO 2021/186427; variable regions SEQ ID NOs: 42 and 43; parent of the humanized antibodies (antibody, V domains shown)
VH: MRVLILLCLFTAFPGVLSDVQVQESGPDLVKPSQSLSLTCTVTGHSITRGSSWHWIRQFPGNKLEWMGYIHYGGGTSYNPSLKSRISITRDTSKNQFFLQLNSVTTEDTATFFCARYSYDITYRWFFDVWGAGTTVIVSS
VL: MVSTPQFLVFLLFWIPASRGDILLTQSPAILSVSPGERVSFSCRASQNIGTSIHWYQQRKNGSPRLLIKYASESISGIPSRFSGSGSGTDFTLSINSVESEDMADYYCQQNNNWPLTFGAGTKLELK
notes: chimeric anti-MUC1 SEA antibody of WO 2021/186427; parent of the humanized antibodies
What does the source list for B1?
Kd [1]: 1 ± 0.1 nM; Kd [2]: 0.0427 nM; kd [2]: 0.000188 s⁻¹

B2: SP66: CDR-grafted humanized 5F3; VH SEQ ID NO: 5, VL SEQ ID NO: 6 (antibody, V domains shown)
VH: EIQLVQSGAEVKKPGSSVKVSCKASGHSITRGSSWHWMRQAPGQGLEWIGYIHYGGGTSYNPSLKSRATLTVDTSTNTAYMELSSLRSEDTAFYFCARYSYDITYRWFFDVWGQGTLVTVSS
VL: DIQMTQSPSTLSASVGDRVTITCRASQNIGTSIHWFQQKPGKAPKLLMYRASESISGVPSRFSGSGSGTEFTLTISSLQPDDFATYYCQQNNNWPLTFGQGTKVEVK
Which results are given for B2?
cytotoxic effect / growth inhibition (in words) (SKOV-3 cells): No growth inhibition; binding by flow cytometry (in words) [3]: unable to bind; cytotoxic effect / growth inhibition (in words) [4]: No growth inhibition; cytotoxic effect / growth inhibition (in words) (HT-29 cells): No growth inhibition

B3: HM3 LM3: variant of SP66; VH HM3 SEQ ID NO: 9, VL LM3 SEQ ID NO: 14 (antibody, V domains shown)
VH: B2 VH with A24V, S25T, V72R
VL: B2 VL with F36Y, M48I, Y49K, R50Y
Which kd [2] does the source give for B3 here?
The kd was 0.00347 s⁻¹.

B4: HM5 LM2: variant of SP66; VH HM5 SEQ ID NO: 11, VL LM2 SEQ ID NO: 13 (antibody, V domains shown)
VH: B2 VH with A24V, S25T, A68I, L70I, V72R, A79F
VL: B2 VL with F36Y, M48I, Y49K
For B4, which kd [2] is on record?
The kd was 0.000213 s⁻¹.

B5: HM4 LM3: variant of SP66; VH HM4 SEQ ID NO: 10, VL LM3 SEQ ID NO: 14 (antibody, V domains shown)
VH: B2 VH with A24V, S25T, V72R, A79F
VL: B2 VL with F36Y, M48I, Y49K, R50Y
B5 was tested. Which kd [2] did it give?
The kd was 0.000238 s⁻¹.

B6: HM2 LM2: variant of SP66; VH HM2 SEQ ID NO: 8, VL LM2 SEQ ID NO: 13 (antibody, V domains shown)
VH: B2 VH with A24V, S25T, A68I, L70I, V72R
VL: B2 VL with F36Y, M48I, Y49K
B6 was tested. Which kd [2] did it give?
The kd was 0.000255 s⁻¹.

B7: HM5 LM3: variant of SP66; VH HM5 SEQ ID NO: 11, VL LM3 SEQ ID NO: 14 (antibody, V domains shown)
VH: B2 VH with A24V, S25T, A68I, L70I, V72R, A79F
VL: B2 VL with F36Y, M48I, Y49K, R50Y
For B7, which kd [2] is on record?
The kd was 0.000198 s⁻¹.

B8: HM2 LM3: variant of SP66; VH HM2 SEQ ID NO: 8, VL LM3 SEQ ID NO: 14 (antibody, V domains shown)
VH: B2 VH with A24V, S25T, A68I, L70I, V72R
VL: B2 VL with F36Y, M48I, Y49K, R50Y
B8 was tested. Which kd [2] did it give?
The kd was 0.000188 s⁻¹.

B9: HM4 LM2: variant of SP66; VH HM4 SEQ ID NO: 10, VL LM2 SEQ ID NO: 13 (antibody, V domains shown)
VH: B2 VH with A24V, S25T, V72R, A79F
VL: B2 VL with F36Y, M48I, Y49K
For B9, which kd [2] is on record?
The kd was 0.000261 s⁻¹.

B10: HM3 LM2: variant of SP66; VH HM3 SEQ ID NO: 9, VL LM2 SEQ ID NO: 13 (antibody, V domains shown)
VH: B2 VH with A24V, S25T, V72R
VL: B2 VL with F36Y, M48I, Y49K
How did the kd [2] turn out when B10 was run?
Its kd is 0.000492 s⁻¹.
